Test results reported in patent US12702694B2, “Methods for identification, assessment, prevention, and treatment of metabolic disorders using SLIT2” (Dana-Farber Cancer Institute, Inc., priority 2015, dated 2026).

Assays:
Assay type in all cases: cell-based, Mus musculus
[1] = tested on: primary brown fat cells; assay: Thermogenic gene expression in primary brown fat cells with adenoviral overexpression; details: Slit2-C vs LacZ virus, day 7; FIG. 6B
Procedure: Inguinal and brown stromal-vascular fractions were obtained from 6 weeks old male or newborn mice (postnatal days 5-10) for white and brown fat cultures, respectively. Inguinal fat tissue was dissected and washed with PBS, minced and digested for 45 min at 37° C. in PBS containing 10 mM CaCl2), 2.4 U/ml dispase II (Roche) and 10 mg/ml collagenase D (Roche). Brown fat tissue was dissected, washed with PBS, minced and digested for 45 min at 37° C. in PBS containing 1.3 mM CaCl2, 123 mM NaCl, 5 mM KCl, 5.0 mM glucose, 100 mM HEPES, 4% BSA and 1.5 mg/ml collagenase B (Roche). Digested tissue was filtered through a 100-μm cell strainer and centrifuged at 600 g for 10 min. […] For adenoviral overexpression of Slit2-FL, Slit2-N, Slit2-C, LacZ or Cre, virus was added at day 2 of differentiation at a titer of 10^8 particles/well and cells were analyzed at day 6-7. […]
RNA was extracted from cultured cells or frozen tissue samples using TRIzol®, purified with QIAGEN RNeasy® minicolumns. Normalized RNA was reversed transcribed using a high-capacity cDNA reverse transcription lot (Applied Biosystems) and cDNA was analyzed by qRT-CPR. Relative mRNA levels were calculated using the comparative CT method and normalized to cyclophilin […]. […]

[2] = tested on: receptor tyrosine kinases and intracellular kinases; assay: Phosphokinase array in primary inguinal cells; details: Slit2-C vs lacZ adenovirus, primary inguinal adipocytes
Procedure: For Western blotting, homogenized tissues, whole cell lysates, or concentrated serum free conditioned medium were lysed in RIPA buffer containing protease inhibitor cocktail (Thermo Scientific) and phosphatase inhibitor cocktail (Thermo Scientific), separated by SDS-PAGE and transferred to Immobilon-P® membranes (Millipore). For Western blotting of plasma samples, 1 μl of plasma was prepared containing 2× sample buffer (Invitrogen) with reducing agent, boiled and analyzed using Western blot against V5, FLAG, or the indicated antibody. V5-antibody was from Life Technologies and anti-Flag M2-HRP (A8592) from Sigma Aldrich. Anti-Slit2 antibody used was from Abcam (Abcam ab134166). Phospho-PKA Substrate, phospho-PKC Substrate, phospho-ERK1/2, total ERK, phospho-AKT, total AKT, phospho-AMPK, total AMPK, phospho-ATGL, ATGL, phospho-EGFR and EGFR were from Cell Signaling. Protein array was from R&D Systems (Proteome Profiler Mouse Phospho-RTK Array Kit, ARY014). Silverstain (SilverQuest™ Silver Staining Kit, LC6070) was purchased from Thermo Fisher.

[3] = tested on: primary inguinal fat cells; assay: Cellular oxygen consumption measured by Seahorse; details: recombinant Slit2-C 1 ug/mL (Calico/AbbVie), acute or 2 h treatment; FIG. 13
Procedure: Tissue respiration was performed using a Clark electrode (Stathkelvin Instruments). Freshly isolated tissues were dissected from mice treated with LacZ or Slit2-C adenovirus for 7 days. Equally sized pieces of tissue were minced and placed in respiration buffer containing PBS supplemented with 2% (w/v) bovine serum albumin, 1% (w/v) glucose, and 1 mM Na pyruvate. Oxygen (O2) consumption was normalized to tissue weight. Cellular oxygen consumption rates were determined using an XF24 Extracellular Flux Analyzer (Seahorse Biosciences). Primary brown fat adipocytes were seeded at 15,000 cells/well, differentiation was induced the following day as previously described, and the cells were analyzed on day 5. On the day of analysis, the cells were washed once with Seahorse respiration buffer (8.3 g/l DMEM, 1.8 g/l NaCl, 1 mM pyruvate, 20 mM glucose, pen/strep), placed in 0.5 ml Seahorse respiration buffer, and incubated in a C02-free incubator for 1 hr. […]
As described above in Examples 5-7, in vitro and in vivo data on respiration using Slit2-C adenovirus overexpression models and loss-of-function analyses in Seahorse assays are described. In vitro confirmation of the results was determined using an alternative source of recombinant Slit2-C (FIG. 13). […] Cellular oxygen consumption rates were determined as described in Example 1 Statistical analysis was performed as described in Example 1C above.

B1: Slit2-C: ~50 kDa C-terminal cleavage fragment of Slit2 beginning at TSP (SEQ ID NO: 22); adenovirally expressed or purified FLAG-tagged protein (protein, listed as Homo sapiens)
chain: TSPCDNFDCQNGAQCIIRINEPICQCLPGYLGEKCEKLVSVNFVNKESYLQIPSAKVRPQTNITLQIATDEDSGILLYKGDKDHIAVELYRGRVRASYDTGSHPASAIYSVETINDGNFHIVELLTLDSSLSLSVDGGSPKVITNLSKQSTLNFDSPLYVGGMPGKNNVASLRQAPGQNGTSFHGCIRNLYINSELQDFRKMPMQTGILPGCEPCHKKVCAHGMCQPSSQSGFTCECEEGWMGPLCDQRTNDPCLGNKCVHGTCLPINAFSYSCKCLEGHGGVLCDEEEDLFNPCQMIKCKHGKCRLSGVGQPYCECNSGFTGDSCDREISCRGERIRDYYQKQQGYAACQTTKKVSRLECRGGCAGGQCCGPLRSKRRKYSFECTDGSSFVDEVEKVVKCGCARCAS
modifications: FLAG tag
notes: adenovirally expressed or purified FLAG-tagged protein
[1]
  thermogenic gene expression response of primary brown fat cells: responded stronger
[2]
  phospho-EGFR and phospho-ERK1/2 (only two of 39 kinases tested): robust phosphorylation changes
[3]
  cellular oxygen consumption vs results of Examples 5-7: confirm the results
